± gives the standard deviation of the averaged measurements.
System: ATP
Assay: switch fluorescence ratio, 500 uM ATP over buffer (Cy3 cluster intensity, sum of 5 cycles each) (fold (ratio)); higher = stronger signal-on switching upon ATP binding; sequences stand for … in TCGTCGGCAGCGTCAGATGTGTATAAGAGACAGTTTTTTTTTTTTTTTTTTTTTTTTT…TC
Details: aptamer strand: ATP DNA aptamer (quencher-CACCTGGGGGAGTATTGCGGAGGAAGG + anchor), 100 nM annealed; ATP concentration: 500 uM
How it was run: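 Imaging in selection buffer was followed by imaging after 15 min with 500 uM ATP at 22 °C, for Cy3-labelled switching-strand clusters annealed to 100 nM quencher-labelled ATP aptamer on a modified Illumina MiSeq flow-cell. Five of these buffer/ATP cycles ran, separated by NaOH stripping and re-annealing. The fluorescence ratio per cluster is summed target-cycle over summed buffer-cycle Cy3 intensity, averaged per switch-domain sequence; clusters outside 100-1000 RFU were removed.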
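Further: ATP exposure 15 min at 22 °C before imaging.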

| Sequence | switch fluorescence ratio |
| --- | --- |
| AAAGAGTAGT | 0.962 ± 0.014 |
| TATTTTAGAG | 0.966 ± 0.018 |
| TTCCATGTTT | 1.06 ± 0.11 |
| GCGCATAGGG | 1.04 ± 0.044 |
| GATGGAAGTT | 1 ± 0.018 |
| CAGTGAGGTT | 1.02 ± 0.031 |
| TGAGAGGATG | 0.99 ± 0.021 |
| TTGCGGTGGG | 1.03 ± 0.018 |
| TTTTTATCA | 0.9798 ± 0.0082 |
| TTCATATTCA | 1.01 ± 0.023 |
| AAGTTATGAG | 1.01 ± 0.046 |
| CAGATAGAAG | 0.999 ± 0.012 |
| GCCGTCTAAG | 0.993 ± 0.022 |
| TGTGTTCACA | 0.98 ± 0.0058 |
| AATGTTCAAA | 0.995 ± 0.023 |
| TTTGTAGAGT | 1.01 ± 0.034 |
| CTACGGGCTG | 0.9898 ± 0.0069 |
| TACGTTATAG | 1.11 ± 0.025 |
| TAGGGTTAAT | 1.03 ± 0.038 |
| CGGTGAATAC | 2.67 ± 0.064 |
| TCGAGGGAAG | 0.998 ± 0.023 |
| TTATTTAAAA | 1 ± 0.02 |

| Sequence | switch fluorescence ratio |
| --- | --- |
| GCGTGGGGGG | 1 ± 0.016 |
| GTTAGGGTAT | 0.9975 ± 0.004 |
| AGCTACGTCG | 0.942 ± 0.034 |
| TCGTGCTTTG | 1.0145 ± 0.00045 |
| GACGTCGGGA | 1.012 ± 0.0021 |
| CCAGCAGGTA | 1.13 ± 0.064 |
| TAATGCGCAA | 2.56 ± 1.6 |
| TACGGTTTAG | 1 ± 0.048 |
| ACCCCTGGGC | 1.16 ± 0.041 |
| AGTGGAATTC | 1.04 ± 0.012 |
| TTTTAACAAT | 1.021 ± 0.0098 |
| ATTTTCGTTT | 0.945 ± 0.024 |
| ATTGGGTAGT | 0.9765 ± 0.0084 |
| AAGAGGACGA | 1.01 ± 0.028 |
| ACATAATGCC | 0.933 ± 0.047 |
| CGAGTTTTTT | 1 ± 0.021 |
| GGTGAGAGTT | 0.956 ± 0.0087 |
| AAAACATAGC | 0.965 ± 0.056 |
| ACTTAGCATT | 1.14 ± 0.024 |
| TGAGTATTTT | 0.992 ± 0.025 |
| ATGGGTAGAG | 1 ± 0.022 |
